Assays:
[1] = target: T1, N-terminal region of human GLP1R-MMH (human); test: SPR Biacore 4000, mAb captured by anti-human Fc, 25 C
T1 construct: also called hGLP1R-MMH
T1 chain: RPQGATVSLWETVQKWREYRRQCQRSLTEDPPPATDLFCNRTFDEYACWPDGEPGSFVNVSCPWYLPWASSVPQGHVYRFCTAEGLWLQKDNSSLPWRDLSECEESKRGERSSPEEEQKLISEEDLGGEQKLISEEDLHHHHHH
Protocol: (§1) The equilibrium dissociation constant (KD) for GLP1R binding to selected GLP1R monoclonal antibodies (mAbs) was determined using a real-time surface plasmon resonance biosensor using a Biacore 4000 instrument. All binding studies were performed in 10 mM HEPES, 150 mM NaCl, 3 mM EDTA, and 0.05% v/v Surfactant Tween-20, pH 7.4 (HBS-ET) running buffer at 25° C. and 37° C. The Biacore CM5 sensor chip surface was first derivatized by amine coupling with human Fc specific mouse mAb to capture different GLP1R mAbs. […] At the end of each cycle, the GLP1R mAb capture surface was regenerated using a 12 sec injection of 20 mM phosphoric acid.
(§2) The association rate (kₐ) and dissociation rate (kd) were determined by fitting the real-time binding sensorgrams to a 1:1 binding model with mass transport limitation using Scrubber 2.0 c curve-fitting software.

[2] = target: T2, human GLP1R expressed with mouse IgG2a Fc (human); test: as above
T2 construct: It is probably the N-terminal region, as for hGLP1R-MMH, but the sentence is ambiguous; also called hGLP1R-mFc
T2 chain: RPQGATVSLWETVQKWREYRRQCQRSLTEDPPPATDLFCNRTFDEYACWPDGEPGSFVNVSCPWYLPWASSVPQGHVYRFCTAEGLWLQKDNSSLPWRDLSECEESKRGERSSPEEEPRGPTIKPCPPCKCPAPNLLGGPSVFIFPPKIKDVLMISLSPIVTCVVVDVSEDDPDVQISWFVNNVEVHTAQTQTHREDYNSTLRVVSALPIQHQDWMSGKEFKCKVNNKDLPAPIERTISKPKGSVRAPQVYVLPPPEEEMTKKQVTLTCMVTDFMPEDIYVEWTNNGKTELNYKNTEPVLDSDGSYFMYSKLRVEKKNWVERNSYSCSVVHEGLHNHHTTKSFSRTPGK
Protocol: as §1
(§3) The association rate (kₐ) and dissociation rate (kd) were determined by fitting the real-time binding sensorgrams to a 1:1 binding model with mass transport limitation using Scrubber 2.0 c curve-fitting software. Binding dissociation equilibrium constant (KD) and dissociative half-life (t½) were calculated from the kinetic rates as:

[3] = target: T2, human GLP1R expressed with mouse IgG2a …; test: SPR Biacore 4000, mAb captured by anti-human Fc, 37 C
Protocol: as §1, §3

[4] = target: T3, macaca fascicularis GLP1R-MMH (macaca fascicularis); test: as above
T3 construct: also called mfGLP1R-MMH; monomeric cynomolgus GLP1R
T3 chain: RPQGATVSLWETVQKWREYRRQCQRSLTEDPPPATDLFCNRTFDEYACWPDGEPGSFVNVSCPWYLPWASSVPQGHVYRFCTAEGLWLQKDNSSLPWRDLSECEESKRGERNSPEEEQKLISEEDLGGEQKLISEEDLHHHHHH
Protocol: as §1, §2

[5] = target: T4, in-line fusion protein of human desA-GLP1 and GLP1R-MMH (human); test: SPR Biacore 4000, mAb captured by anti-human Fc, 25 C
T4 construct: also called hdesA-GLP1_GLP1R-MMH
T4 chain: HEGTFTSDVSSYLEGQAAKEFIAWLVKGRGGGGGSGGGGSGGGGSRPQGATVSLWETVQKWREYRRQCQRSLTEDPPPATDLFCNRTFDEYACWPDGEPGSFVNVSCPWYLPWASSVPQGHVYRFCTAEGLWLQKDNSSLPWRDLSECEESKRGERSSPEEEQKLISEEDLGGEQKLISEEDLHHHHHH
Protocol: as §1, §3

mouse GLP1R-MMH [6] = target: T5, mouse GLP1R-MMH (mouse); test: SPR Biacore 4000, mAb captured by anti-human Fc, 37 C
T5 construct: It was injected at 100 nM only; also called mGLP1R-MMH; monomeric mouse GLP1R
T5 chain: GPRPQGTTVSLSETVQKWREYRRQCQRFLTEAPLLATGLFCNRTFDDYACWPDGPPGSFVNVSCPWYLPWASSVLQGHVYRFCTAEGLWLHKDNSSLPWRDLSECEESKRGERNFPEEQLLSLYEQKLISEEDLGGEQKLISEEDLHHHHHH
Protocol: as §1, §3

mouse GLP1R-MMH [7] = target: T5, mouse GLP1R-MMH; test: SPR Biacore 4000, mAb captured by anti-human Fc, 25 C
Protocol: as §1, §3

[8] = target: T4, in-line fusion protein of human …; test: SPR Biacore 4000, mAb captured by anti-human Fc, 37 C
Protocol: as §1, §2

[9] = target: full-length human GLP1R on HEK293/CRE-luc/GLP1R cells (human, UniProt P43220 24-463); test: cell-based or functional assay
[10] = target: T1, N-terminal region of human GLP1R-MMH; test: SPR Biacore 4000, mAb captured by anti-human Fc, 37 C
Protocol: as §1, §2

[11] = target: T3, macaca fascicularis GLP1R-MMH; test: SPR Biacore 4000, mAb captured by anti-human Fc, 25 C
Protocol: as §1, §2

B1: mAb36986 (antibody, human IgG4 S228P, kappa, V domains shown)
VH: QVQLVQSGTEVKKPGASVKVSCMASGYTFTTYGISWVRQAPGQGLEWMGWISAYNGNTKYAQRLQGRVTMTTDTSTTTAYMGLRGLRSDDTAVYFCARVTLSGRFDYWGQGTLVTVSP
VL: DIQMTQSPSSLSASVGDRVTITCQASQDISDYLNWYQQKPGKAPKLLIYDASNLETGVPSRFSGSGSGTDFTFTIRSLQPEDIATYYCQQYDNLPYTFGQGTKLEIKR
notes: In SPR the mAbs were captured by a human-Fc-specific antibody
- 100 nM hGLP1R-MMH Bound (RU) [1]: 115 RU
- Kd [1]: 0.139 nM
- koff [1]: 9.97e-05 s⁻¹
- kon [1]: 717000 M⁻¹ s⁻¹
- t½ [1]: 116 min
- 100 nM hGLP1R-mFc Bound (RU) [2]: 187 RU
- Kd [2]: 0.735 nM
- koff [2]: 7.64e-05 s⁻¹
- kon [2]: 104000 M⁻¹ s⁻¹
- t½ [2]: 151 min
- 100 nM hGLP1R-mFc Bound (RU) [3]: 246 RU
- Kd [3]: 3.35 nM
- koff [3]: 0.000432 s⁻¹
- kon [3]: 129000 M⁻¹ s⁻¹
- t½ [3]: 27 min
- 100 nM mfGLP1R-MMH Bound (RU) [4]: 128 RU
- Kd [4]: 1.59 nM
- koff [4]: 0.000501 s⁻¹
- kon [4]: 315000 M⁻¹ s⁻¹
- t½ [4]: 23 min
- 100 nM hdesA-GLP1_GLP1R-MMH Bound (RU) [5]: 13 RU
- Kd [5]: 3.56 nM
- koff [5]: 0.000108 s⁻¹
- kon [5]: 30400 M⁻¹ s⁻¹
- t½ [5]: 107 min
- 100 nM mGLP1R-MMH Bound (RU) (mouse GLP1R-MMH [6]): 70 RU
- Kd (mouse GLP1R-MMH [6]): 74.7 nM
- koff (mouse GLP1R-MMH [6]): 0.0485 s⁻¹
- kon (mouse GLP1R-MMH [6]): 649000 M⁻¹ s⁻¹
- t½ (mouse GLP1R-MMH [6]): 0.24 min
- 100 nM mGLP1R-MMH Bound (RU) (mouse GLP1R-MMH [7]): 88 RU
- Kd (mouse GLP1R-MMH [7]): 20.1 nM
- koff (mouse GLP1R-MMH [7]): 0.00902 s⁻¹
- kon (mouse GLP1R-MMH [7]): 449000 M⁻¹ s⁻¹
- t½ (mouse GLP1R-MMH [7]): 1.3 min
- 100 nM hdesA-GLP1_GLP1R-MMH Bound (RU) [8]: 28 RU
- Kd [8]: 60.4 nM
- koff [8]: 0.000987 s⁻¹
- kon [8]: 16300 M⁻¹ s⁻¹
- t½ [8]: 12 min
- % Inhibition of human GLP1R activation by 40 pM GLP1 (CRE-luciferase reporter) [9]: 100%
- IC50 [M] of inhibition of human GLP1R activation by 40 pM GLP1 (CRE-luciferase reporter) [9]: 1.69e-09 M
- 100 nM hGLP1R-MMH Bound (RU) [10]: 135 RU
- Kd [10]: 0.594 nM
- koff [10]: 0.000544 s⁻¹
- kon [10]: 915000 M⁻¹ s⁻¹
- t½ [10]: 21 min
- 100 nM mfGLP1R-MMH Bound (RU) [11]: 103 RU
- Kd [11]: 0.424 nM
- koff [11]: 0.000102 s⁻¹
- kon [11]: 240000 M⁻¹ s⁻¹
- t½ [11]: 113 min

B2: mAb37639 (antibody, human IgG4 S228P, kappa, V domains shown)
VH: EVQLLESGGGVVQPGGSLRLSCVASGFTFSSYAMSWVRQAPGKGLEWVSSISGSGGSTDNADSVKGRFTISRDNSKNTLYLQMNSLRAEDTAVYYCAKDRITIFGVVLNGAFDIWGQGTMVTVSS
VL: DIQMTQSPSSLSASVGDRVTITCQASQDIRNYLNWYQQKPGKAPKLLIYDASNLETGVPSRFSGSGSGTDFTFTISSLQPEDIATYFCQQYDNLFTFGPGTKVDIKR
notes: as for B1
- 100 nM hGLP1R-MMH Bound (RU) [1]: 103 RU
- Kd [1]: 0.474 nM
- koff [1]: 0.000186 s⁻¹
- kon [1]: 393000 M⁻¹ s⁻¹
- t½ [1]: 62 min
- 100 nM hGLP1R-mFc Bound (RU) [2]: 122 RU
- Kd [2]: 2.37 nM
- koff [2]: 0.000156 s⁻¹
- kon [2]: 65900 M⁻¹ s⁻¹
- t½ [2]: 74 min
- 100 nM hGLP1R-mFc Bound (RU) [3]: 185 RU
- Kd [3]: 3.52 nM
- koff [3]: 0.000354 s⁻¹
- kon [3]: 101000 M⁻¹ s⁻¹
- t½ [3]: 33 min
- 100 nM mfGLP1R-MMH Bound (RU) [4]: 110 RU
- Kd [4]: 1.94 nM
- koff [4]: 0.000418 s⁻¹
- kon [4]: 215000 M⁻¹ s⁻¹
- t½ [4]: 28 min
- 100 nM hdesA-GLP1_GLP1R-MMH Bound (RU) [5]: 8 RU
- Kd [5]: 16 nM
- koff [5]: 0.00019 s⁻¹
- kon [5]: 11900 M⁻¹ s⁻¹
- t½ [5]: 61 min
- 100 nM mGLP1R-MMH Bound (RU) (mouse GLP1R-MMH [6]): 97 RU
- Kd (mouse GLP1R-MMH [6]): 22.1 nM
- koff (mouse GLP1R-MMH [6]): 0.00959 s⁻¹
- kon (mouse GLP1R-MMH [6]): 435000 M⁻¹ s⁻¹
- t½ (mouse GLP1R-MMH [6]): 1.2 min
- 100 nM mGLP1R-MMH Bound (RU) (mouse GLP1R-MMH [7]): 85 RU
- Kd (mouse GLP1R-MMH [7]): 16.9 nM
- koff (mouse GLP1R-MMH [7]): 0.00454 s⁻¹
- kon (mouse GLP1R-MMH [7]): 269000 M⁻¹ s⁻¹
- t½ (mouse GLP1R-MMH [7]): 2.5 min
- 100 nM hdesA-GLP1_GLP1R-MMH Bound (RU) [8]: 21 RU
- Kd [8]: 74.2 nM
- koff [8]: 0.00127 s⁻¹
- kon [8]: 17100 M⁻¹ s⁻¹
- t½ [8]: 9 min
- % Inhibition of human GLP1R activation by 40 pM GLP1 (CRE-luciferase reporter) [9]: 100%
- IC50 [M] of inhibition of human GLP1R activation by 40 pM GLP1 (CRE-luciferase reporter) [9]: 6.55e-09 M
- 100 nM hGLP1R-MMH Bound (RU) [10]: 123 RU
- Kd [10]: 0.632 nM
- koff [10]: 0.000422 s⁻¹
- kon [10]: 668000 M⁻¹ s⁻¹
- t½ [10]: 27 min
- 100 nM mfGLP1R-MMH Bound (RU) [11]: 83 RU
- Kd [11]: 1.42 nM
- koff [11]: 0.000195 s⁻¹
- kon [11]: 137000 M⁻¹ s⁻¹
- t½ [11]: 59 min

B3: mAb37645 (antibody, human IgG4 S228P, kappa, V domains shown)
VH: QVRLQQWGAGLLKPSETLSLTCAVYGGSFSGYFWSWIRQPPGKGLEWIGEINHGGNTNSNPSLKSRVTISVDTSKNQFSLKLSAVIAADTAVYYCARGQYRSGGGYWYFDLWGRGTLVTVSS
VL: EIVLTQSPGTLSLSPGERATLSCRASQSISSVHLAWYQQKPGQAPRLLIYGASSRATGIPDRFSGSGSETDFTLTVSRLEPDDFTMYYCQQYGSSPWTFGQGTKVEIKR
notes: as for B1
- 100 nM hGLP1R-MMH Bound (RU) [1]: 60 RU
- Kd [1]: 5.72 nM
- koff [1]: 0.000866 s⁻¹
- kon [1]: 152000 M⁻¹ s⁻¹
- t½ [1]: 13 min
- 100 nM hGLP1R-mFc Bound (RU) [2]: 91 RU
- Kd [2]: 1.42 nM
- koff [2]: 0.000183 s⁻¹
- kon [2]: 128000 M⁻¹ s⁻¹
- t½ [2]: 63 min
- 100 nM hGLP1R-mFc Bound (RU) [3]: 116 RU
- Kd [3]: 2.59 nM
- koff [3]: 0.00065 s⁻¹
- kon [3]: 251000 M⁻¹ s⁻¹
- t½ [3]: 18 min
- 100 nM mfGLP1R-MMH Bound (RU) [4]: 42 RU
- Kd [4]: 55.2 nM
- koff [4]: 0.00384 s⁻¹
- kon [4]: 69500 M⁻¹ s⁻¹
- t½ [4]: 3 min
- 100 nM hdesA-GLP1_GLP1R-MMH Bound (RU) [5]: 58 RU
- Kd [5]: 4.32 nM
- koff [5]: 0.00052 s⁻¹
- kon [5]: 120000 M⁻¹ s⁻¹
- t½ [5]: 22 min
- 100 nM mGLP1R-MMH Bound (RU) (mouse GLP1R-MMH [6]): 42 RU
- Kd (mouse GLP1R-MMH [6]): 29.8 nM
- koff (mouse GLP1R-MMH [6]): 0.00249 s⁻¹
- kon (mouse GLP1R-MMH [6]): 83600 M⁻¹ s⁻¹
- t½ (mouse GLP1R-MMH [6]): 4.6 min
- 100 nM mGLP1R-MMH Bound (RU) (mouse GLP1R-MMH [7]): 30 RU
- Kd (mouse GLP1R-MMH [7]): 10.8 nM
- koff (mouse GLP1R-MMH [7]): 0.000617 s⁻¹
- kon (mouse GLP1R-MMH [7]): 56900 M⁻¹ s⁻¹
- t½ (mouse GLP1R-MMH [7]): 19 min
- 100 nM hdesA-GLP1_GLP1R-MMH Bound (RU) [8]: 71 RU
- Kd [8]: 16.5 nM
- koff [8]: 0.00229 s⁻¹
- kon [8]: 139000 M⁻¹ s⁻¹
- t½ [8]: 5 min
- % Inhibition of human GLP1R activation by 40 pM GLP1 (CRE-luciferase reporter) [9]: 73%
- IC50 [M] of inhibition of human GLP1R activation by 40 pM GLP1 (CRE-luciferase reporter) [9]: 1.23e-09 M
- 100 nM hGLP1R-MMH Bound (RU) [10]: 70 RU
- Kd [10]: 18 nM
- koff [10]: 0.00349 s⁻¹
- kon [10]: 195000 M⁻¹ s⁻¹
- t½ [10]: 3.3 min
- 100 nM mfGLP1R-MMH Bound (RU) [11]: 35 RU
- Kd [11]: 19.6 nM
- koff [11]: 0.000826 s⁻¹
- kon [11]: 42200 M⁻¹ s⁻¹
- t½ [11]: 14 min
